Legend:
[1] = molecular target: the molecule itself; experiment: SEC; analytical SEC (Superdex 200 5/150), 20 µM protein with 200 µM GDP, 300 µM AlCl3, 10 mM NaF (GDP•AlFx); 50 mM Tris-HCl pH 7.9, 150 mM NaCl, 5 mM MgCl2
[2] = molecular target: the molecule itself; experiment: specific GDPase activity against protein concentration (HPLC), quadratic fit; apparent Kd of dimer formation; isolated LG domains, 1 mM GDP, 37 °C, 50 mM Tris-HCl pH 7.9, 150 mM NaCl, 5 mM MgCl2; dimer to monomers

B1: isolated LG domain of GBP1, wild-type (domain or fragment, human, UniProt P32455 1-317, looked up)
chain: MASEIHMTGPMCLIENTNGRLMANPEALKILSAITQPMVVVAIVGLYRTGKSYLMNKLAGKKKGFSLGSTVQSHTKGIWMWCVPHPKKPGHILVLLDTEGLGDVEKGDNQNDSWIFALAVLLSSTFVYNSIGTINQQAMDQLYYVTELTHRIRSKSSPDENENEVEDSADFVSFFPDFVWTLRDFSLDLEADGQPLTPDEYLTYSLKLKKGTSQKDETFNLPRLCIRKFFPKKKCFVFDRPVHRRKLAQLEKLQDEELDPEFVQQVADFCSYIFSNSKTKTLSGGIQVNGPRLESLVLTYVNAISSGDLPCMENAVL
notes: large GTPase (LG) domain of GBP1, human; stop codon in place of A318 (primer A318*); also called wild-type LG domain; WT; source: E. coli, pQE-80L, purified (Ni Sepharose HP, Superdex 200)
For B1, the “stoichiometry N” value [1] was 2 and the Kd [2] was 110 µM.
